Measurements taken from the DeepSol protein solubility set.

assay: soluble on expression in E. coli; label from the status in PepcDB or PDB records

| Sequence | soluble on expression in E. coli |
| --- | --- |
| GPGSMYRSDTDERKRRQSVSWRKRASFIELDCGEDSFFVANNYKVIGVADGVGGWRAEGVDPSLFANALMENAKLFAETHRGERDPEKILDAAYTKVVKDGIVKVGSSTACVATLRKDDDGSHKLDVANLGDSGVMVVRNRSMYFRAHEKVHGFNAPFQLAVLPQPMVGRAFSDRVQDCVRESVPVQEGDVIVMGTDGLFDNRFNSQLAADAGWIGKVEESPIAKIPLVGFFLSGILDEKIDYVDPYRVAQRIITDAYKTSVNPDTNSPWASMLRQFGQTDAKGGKPDDITVLLSRVSTREELSNSTSW | not soluble |
| MGRVGVLLANLGTPDDYSYWPMRRYLNEFLSDKRVIDYPAWKWQPILQGIILTKRPFSSGAAYESIWNHDKGESPLMTITKDQTAKLRAALAERYGDRVMVDFCMRYGNPSTKSKVRQMVTEGCDRILFFPLYPQYAGATTATANDQFFRALMDETWQPAARTVPAYFDQPAYVDALAQSIERAYAAMDSRPDVLVCSYHGMPERYLMQGD | not soluble |
| MSLGDEWARIRKDGALLIGLEGTFPPYSQLAGGQLQGFEVDFGRALAAQMGVTARFQTMVWDHMLDSLAAGRLDAVINQVVATPARGKRFDFSIPYTYSGLQLVVRKPDLTRFRGARDLAGAHVGVSAGTNYEQWLRDNAPQAHIHLYQDDPTKFDGLRRGEVDAIVINRLAAFNLALKSQGELVPTGRVLAREDACVVLRKGNPRLLAEVNRAIGHLQRDGTLQALSRKWFKADIVSEGHHHHHH | soluble |
| MEDENILRNAVNLQVLKFHYPEIESIIDIASHVAVYQFDVGSQKWLKTSIEGTFFLVKDQRARVGYVILNRNSPENLYLFINHPSNVHLVDRYLIHRTENQHVVGLWMFDPNDMSRIFNIVKESLLR | soluble |
| QAKPGGKEDSVLYQLMRARVALIYEETPGIAAKRFRAQLVENPKSEPARYGLAIAQIKGGQLNEARESLKPLLEKSPNDITYNLTQIDLDITNNRLADAQQRVDRMLTLYPTSYPLNDVRIDVLLKQNRTAEAEKSLEALLKTRPDDPDIWYVVAETRG | not soluble |
| MIPATLHQLKVFETTARHGSFTKAAEELSITQPTVSGQVKQLTQTIGMPLFEHIGRKLYLTEAGEELLATCQEIFERLDNFEMKLAALQGAKRGQLRLGVITTTKYFVPRILGEFCQDYPDIDVSLQVINHQQLHDRMADNLDDLYILSNLPDDLDVHAQAFLDNPLVVVARADHPLAHQKNLPLSVLDGADFVTREMGSGTRLAVEKLLAEHDVSVQVRLELGSNEAIKQAIAGGLGISVLSRHTLITEPPHGELTVLDVEHFPIQRHWYVAYLAGKQLSVIAQAFLEFMVRSSQKTLENSGRRSLALQP | not soluble |
| MTDNSQFHAASALVQAAHTVSVVGHLRPDADAIGSVAATVAALQQLGKDAVGAIGQLDSMPENLYTIPGASNIKFGDSLPESDLIIVVDCGSIERTGAFESIIVNNPDKVLVVDHHATNPGFGAVNLIDVEAESTTTILYDWFDAMSVQITPDIAHGLYAGLLTDTGCFRWGRPVMHDMAKELMEFGLDIRAISSALLDQTSVDDLRLVGQIVSRIELREAGPYTLAVLVADFDTINGRSRAVVEGLIEMVRAVEGADFGAVFKEYERGVYTVSLRSSNLSVASLAVHLGGGGHIPAAGYTARGTEIEALDTLIEATVTLGESLRSSAHVDVLEHHHHHH | soluble |
| MRRLLKEQFEAELPEDIRFYMGGKSRVYAYKSCEFDEIASHRGIYFGTIERDGLRLSIEGSFIAGKLAKKNVIELDEESFGRWMRGEDIEADVKGYCIVKHGSYFAGCGKGNGRVLRNFVPKDRRVID | not soluble |
| MDLASLRAQQIELASSVICEDRLDKDPPDLIAGADVGFEQGGEVTRAAMVLLKYPSLELVEYKVARIATTMPYIPGFLSFREYPALLAAWEMLSQKPDLVFVDGHGISHPRRLGVASHFGLLVDVPTIGVAKKRLCGKFEPLSSKPGALAPLMDKGEQLAWVWRSKARCNPLFIATGHRVSVDSALAWVQRCMKGYRLPEPTRWADAVASERPAFVRYTANQPLEHHHHHH | not soluble |
| MALNDNPIPKSVPLHPKSGKYFHNLHARDLSNIYQQCYKQIDETINQLVDSTSPSTIGIEEQVADITSTYKLLSTYESESNSFDEHIKDLKKNFKQSSDACPQIDLSTWDKYRTGELTAPKLSELYLNMPTPEPATMVNNTDTLKILKVLPYIWNDPTCVIPDLQNPADEDDLQIEGGKIELTCPITCKPYEAPLISRKCNHVFDRDGIQNYLQGYTTRDCPQAACSQVVSMRDFVRDPIMELRCKIAKMKESQEQDKRSSQAIDVL | soluble |
| MKKEVTEISSYDATNLVFYVNGKRVEEKDVDPKMTLATYLRDKLKLTGTKIGCNEGGCGACTIMISHIENGEIKHFSANSCLMPVCGVFGKAVTTVEGIGSVAKNRLHPVQERLAKAHGSQCGFCTPGFVMAMYALLRNNPNPTISDINLGLQGNLCRCTGYRPILEAFYSFAVDESGTLKVTEENGCGMGENCCKVKKTACGGSDETTPGYTGGERKRKIQLSDMSDCKPYDPTQELIFPPELKLHGYESMSFAYDHHHTKWYQPVSYDDLLSLKRELPHARLISGNSELAIELKFRFIDLPAVINPRQVKVLHEKHLENDGVYMGTGMSLTDMDNYSVQLMKDLPREQTAVLKHVHEMLHWFAGIHVRNVASVAGNIATASPISDLNPIWMASNALVVLDSEARGEKRVHIDEKFFLGYRKTVIQQDEIIKAVIVPLLEENEHFAAYKQAQRREDDIAIVTGAFLVKLDPKTLVVEKIRISYGGMAPTTKLALTTMEKLIGEKWSQTFLDKALGLLSDELKLPAGVPGGMSQYRLSLALSFFFKFFLGVSKKLELTEIKYVDADVKIGQNVPETLYATQLYQEVKANQPAHDPLGRPIKHVSGDKHTTGEAVYCDDINVADCNHIAFVLSPIAHGTLNSIDYTAALEIDGVVGTIDASDVTTGAQMGHHSDTPVFVKETITFHGQPIAAIVATDHEIARKAASLVKLDYSVEKPIVTIKQALEAESFVFKHFVIHSSLNDNEQVIKSDWSKYDRIVEGSIDMGGQEHFYLETQQCIVIPHEDDELEIIISNQCVNDVQIEVAKCLGMAQHKISTKVKRIGGGFGGKESTGAILAVPASLAAKKFGRPMKFKFERFDDMAITGTRHPFTLQYKLAVDENGKFLDLDYTALSNSGHTIDLSMGVMQRAMVHADNVYKFENADITGKMCKTNLASNTAFRGFGGPQGMFGTEIMVKHVAEKFGFNHDEVRVKNFYKEGDCTPFGMHLNQCNVTRTWDECRKNSDYDNRLEEVKKFNDSNKFRKRGIYLTPTRFGIGFGLKQLNQAGALVLVYTDGSVLVSHGGMEMGQGLHTKILQIAARCLEIPIERIHIHDTSTDKVPNASATAASVGSDMNGLAVQDACRQINERLERFKKLDPNGTWDDWVKAAYVDRVSLSASGFGIIHHEPVDFFNGKGAELFGYSVYGTACCEVEIDCLTGDHHLLRTDIVMDVGESLNPAIDIGQIEGAFIQGYGLFTMEEIKIRPDGIRLTRGPGNYKIPSADDAPRHFNVSLLGNSSNKMGIFSSKAIGEPPLFLGSCAFFAIREAVRAYRIQNGNADYFVFHSPATPERIRMACEDFVTSHVPELPEEGTYTPWITSV | not soluble |
| MGSDKIHHHHHHMAIKNVSIVYPNRFGGGIACLAVHVLTSHLNKYRDISANAYFIENYSKIKNSDAILITLQYENDYFNVVKIVKELKAQNPNAIFIAGGPCAISNPLPIQEFFDVFVVGEIEGTDTMYQLINGNFEIPGVYVPKTYNNEKIKRIYPKKLGIDDYPISQVTHESGAYGKAYLLEIGRGCIRNCKFCMAKCIYAPPRYRKIEDLKHLVDEGLKNTDADKVSLIAPSVSDYRYVLDLCAHISEKNVSISPSSLRADTITDELLEYLNLKTLTIAPEAGSEVLRKKIDKGITEENILNAVDIAKTHGISTVKLYYMVGFPDETEEDIEEIINLTKKIKDNVRKVDVSINPMVPKPHTPFEDFEFDMDSKTKIKYIEKSLRKIKVSVDFEKFNSMVAQTVLARGGSELSKVLNESRNTIELIKNVDLDNYINKIEEKPWDFIEI | not soluble |
| MGSDKIHHHHHHMKITTKQVGARMREARKKKKYTLRYLANKIGLSSGSTISNWELGLNLPNKRYLKKIAKACDTTVDWLLYGDFDRFVRQLLKENFQNKQLLKPPFFTQLMGRLSEEQLSYHDSLKIMIQAQKLQQSFYAFPLTVEAPSHSQESISIYEPTTAEEQSDQSYYHPFILSELHELFTHSQNPELDYSLIIAFLPLLKVDQLTEPQKEVLLAIFKRMNSFKDQTLLNEFFVELQYLL | not soluble |
| VTPVTTFPLVDAILAGRDRNLDGVILIAAQHLLQTTHAMLRSLFRVGLDPRNVAVIGKCYSTHPGVVDAMRADGIYVDDCSDAYAPHESFDTQYTRHVERFFAESWARLTAGRTARVVLLDDGGSLLAVAGAMLDASADVIGIEQTSAGYAKIVGCALGFPVINIARSSAKLLYESPIIAARVTQTAFERTAGIDSSAAILITGAGAIGTALADVLRPLHDRVDVYDTRSGCMTPIDLPNAIGGYDVIIGATGATSVPASMHELLRPGVLLMSASSSDREFDAVALRRRTTPNPDCHADLRVADGSVDATLLNSGFPVNFDGSPMCGDASMALTMALLAAAVLYASVAVADEMSSDHPHLGLIDQGDIVASFLNIDVPLQALSRLPLLSIDGYRRLQVRSGYTLFRQGERADHFFVIESGELEALVDGKVILRLGAGDHFGEACLLGGMRRIATVRACEPSVLWELDGKAFGDALHGDAAMREIAYGVARTRLMHAGASESLMV | not soluble |
| MSIESLNAFSMDFFSLKGKTAIVTGGNSGLGQAFAMALAKAGANIFIPSFVKDNGETKEMIEKQGVEVDFMQVGITAEGAPQKIIAACERFGTVDILVNNAGICKLNKVLDFGRADWDPMIDVNLTAAFELSYEAAKIMIPQKSGKIINICSLFSYLGGQWSPAYSATKHALAGFTKAYCDELGQYNIQVNGIAPGYYATDITLATRSNPETNQRVLDHIPANRWGDTQDLMGAAVFLASPASNYVNGHLLVVDGGYLVR | soluble |
| MSQGDSNPAAIPHAAEDIQGDDRWMSQHNRFVLDCKDKEPDVLFVGDSMVQLMQQYEIWRELFSPLHALNFGIGGDTTRHVLWRLKNGELENIKPKVIVVWVGTNNHENTAEEVAGGIEAIVQLINTRQPQAKIIVLGLLPRGEKPNPLRQKNAKVNQLLKVSLPKLANVQLLDTDGGFVHSDGAISCHDMFDFLHLTGGGYAKICKPLHELIMQLLEETPEEKQTTIA | soluble |
| ANLYWFRADWFDDADTKAAFKEKYGYDLGVPLNWSAYEDIAEFFTGRDMSALGGPKSAYGSMDYGKKDPSLGWRYTDAWMSMAGMGDKGDPNGLPVDEWGIRVDENSRPVGSCVARGGATNDAAAVYAITKSIEWLQKYAPPQAAGMTFSESGPVPAQGEVAQQIFWYTAFTADMVKEGLPVMNEDGTPKWRMAPSPHGAYWSEGTKVGYQDVGSWTLLKSTPDERAKAAWLYAQFVSSKTVDVKKSHVGLTFVRESTIQHQ | not soluble |
| MGSDKIHHHHHHMSNRKINPFVVTGKIEPEYFCDRESESARLIKSIANGNNSVVISPRRMGKTGLIQFCYDKEEIGRNYYTFFIDILHTSSLREFTYLLGREIYETLLPQSKKMINLFVRTLKSISGRFGFDPVSGMPTFGIELGDIEHPEYTLEEIFRYLADADRPCIVAIDEFQQIAKYPEKNIEALLRTHIQKLRNCNFIFAGSERHMMQEMFASAARPFYHSADMLELKAIEADVYIPFIVGHFEKRDRSISPDDAARVYRLFKGHTFYIQKTFNEAFADTPEGEVCTPEIIESAIDNMIASNDTIFREILSNIPEKQKTLLYAIAKEGEAERITSTGFIKRHNLISASSVQSAANKLLDKDIITEINKVYCVTDKLFAMWINTLYGTKDFWRMTSRP | not soluble |
